Assay results as given in US20060003407A1 (Biogen, published 2006).
Blank lines part the entries; values can stand above or below the binder they belong to.

What was measured:
[1] = molecular target: T1, TACI on TACI+ expressing IM9 cell line (UniProt O14836 1-293, limits assumed); assay: FACS on TACI+IM9 cells, 1 to 50 ng/mL ligand
T1 construct: whole, on cells; also called TACI+IM9 cells; TACI+ in IM9 cells
T1 sequence (looked up): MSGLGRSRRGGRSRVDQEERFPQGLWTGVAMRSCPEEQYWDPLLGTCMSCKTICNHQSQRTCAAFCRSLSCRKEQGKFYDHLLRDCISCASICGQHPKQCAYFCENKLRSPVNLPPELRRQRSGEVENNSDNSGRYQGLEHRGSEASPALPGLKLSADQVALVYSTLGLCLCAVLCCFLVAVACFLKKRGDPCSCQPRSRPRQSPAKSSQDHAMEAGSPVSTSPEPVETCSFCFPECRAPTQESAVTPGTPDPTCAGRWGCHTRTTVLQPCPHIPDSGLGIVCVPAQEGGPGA

[2] = molecular target: T1, TACI on TACI+ expressing IM9 cell line; assay: FACS on TACI+IM9 cells, 1 to 50 ng/mL ligand; the filing calls a major component of this binding nonspecific

- binding result [1]: binds
B1: FLAG-tagged truncated human APRIL ligand polypeptide (amino acids 115-250 of SEQ ID NO: 6) (ligand, not shown: small tags and cut ends)
chain: HSVLHLVPINATSKDDSDVTEVMWQPALRRGRGLQAQGYGVRIQDAGVYLLYSQVLFQDVTFTMGQVVSREGQGRQETLFRCIRSMPSHPDRAYNSCYSAGVFHLHQGDILSVIIPRARAKLNLSPHGTFLGFVKL
notes: Expressed in 293T cells; Tested both purified (anti-FLAG M1, SP Sepharose, Superdex 200) and unpurified in cell medium (SN); also called FLAGhuAPRIL purified; FLAGhuAPRIL SN

- binding result [2]: binds
B2: truncated human APRIL ligand polypeptide encoded by amino acid residues 105-250 of SEQ ID NO: 6 (ligand, not shown: small tags and cut ends)
chain: AVLTQKQKKQHSVLHLVPINATSKDDSDVTEVMWQPALRRGRGLQAQGYGVRIQDAGVYLLYSQVLFQDVTFTMGQVVSREGQGRQETLFRCIRSMPSHPDRAYNSCYSAGVFHLHQGDILSVIIPRARAKLNLSPHGTFLGFVKL
notes: also called longer truncate of human APRIL ligand polypeptide
